Reference: patent US20080279856A1, “Inhibition of Bradykinin Release” (Novo Nordisk Pharmaceuticals, Inc., priority 1999, published 2008)

Experiments:
[1] = test system: EC monolayers (HUVEC or BAEC); assay: Transendothelial electrical resistance (TEER) of EC monolayers after HBP stimulation; assay type: cell-based, human, bovine
Method: Human umbilical vein endothelial cells (HUVEC) are isolated from fresh umbilical cords as described by Jaffe et al., 1973, J. Clin. Invest. 52:2745-2756), and bovine aorta endothelial cells (BAEC) are isolated according to the method of Booyse et al., 1975, Thromb. Diath. Haemmorrh. 24:825-839) with a few modifications. Briefly, the lumen of the umbilical vein or bovine aorta is incubated with a 0.25% collagenase solution for 10 min, and detached endothelial cells washed out with PBS. Harvested cells are pelleted and resuspended in culture medium, seeded in tissue culture flasks and incubated under standard conditions. Medium is changed every 48 h until cultures have reached confluence (3-5 days). HUVEC or BAEC in the first to fifth passages are used in the experiments. Identification and purity determination of ECs are based on cobblestone morphology and characterization by factor VIII/vWf antigen (Booyse et al., 1975, Thromb. Diath. Haemmorrh. 24:825-839). Staining for factor VIII/vWf factor is homogeneous in the cells.
Cultured EC are detached by brief (2 min) trypsin-EDTA treatment (0.25% trypsin/0.01% EDTA) and replated onto either 0.2 μm pore size Anopore inorganic membrane or 3.0 μm pore size polycarbonate filters (Tissue Culture inserts, 10 mm; NUNC, Roskilde, Denmark). […] The ECs are grown to confluent monolayers, as assessed by daily microscopic observation and measurement of the electrical resistance across the monolayer.
For measurement of electrical resistance across the EC monolayer, the filter insert is transferred to a resistance measurement chamber (ENDOHM-12; World Precision Instruments, Sarasota, Fla., USA) modified so as to assure exact positioning of the electrodes in relation to each other and to the filter insert during repeated measurements. […] Direct readings of the electrical resistance are given by an ohmmeter (EVOM; World Precision Instruments, Sarasota, Fla., USA) connected to the electrodes of the resistance chamber. […]

EC monolayers = assay: F-actin distribution in EC (FITC-phalloidin staining); assay type: cell-based, human, bovine; settings: HBP 75 μg/ml, 15 min
Method: For analysis of F-actin distribution in EC in response to stimulation with HBP, confluent EC monolayers grown on Biomatrix coated coverslips are incubated with HBP or vehicle alone at 37° C. for 15 min. The monolayers are washed twice in culture medium and fixed in 3.7% formaldehyde in PBS for 10 min at room temperature. EC are permeabilized with 0.2% Triton® X-100 in PBS (1 min at 4° C.), washed twice and stained for actin filaments with FITC-conjugated phalloidin for 20 min at 37° C. The endothelial cells are again washed three times in PBS and viewed in a laser scanning confocal microscope.

[2] = test system: hamster cheek pouch microvasculature; assay: Intravital microscopy of hamster cheek pouch microvessel permeability; assay type: in vivo, Syrian golden hamsters; settings: topical HBP 75 μg/ml
From the text: In order to study the effect of PMN secretion products on microvessel permeability in vivo, intravital microscopy of the hamster cheek pouch microcirculation is applied. As previously described in detail (Raud & Lindbom, 1994, Immunology of the Microcirculation, Academic Press, 1994, chapter 7), the left cheek pouch of anaesthetized Syrian golden hamsters is everted and prepared for microscopic observation under continuous superfusion with a bicarbonate buffer maintaining physiological levels of temperature, pH and gas tensions. FITC-conjugated dextran (MW: 150.000) injected i.v. (250 mg/kg body weight) is used as plasma tracer to permit visualization of changes in vascular permeability to macromolecules. The microvasculature in the exposed cheek pouch is observed under low magnification in fluorescent light with a Leitz Orthoplan microscope and recorded on video. After control recordings, superfusion is stopped and 1 ml of medium containing CD18 cross-linking-evoked PMN secretion at 37° C. is topically applied to the cheek pouch. In parallel experiments, anti-CD18-treated PMN medium is not subjected to cross-linking is used.

[3] = 3H-LPS binding to HBP, scintillation proximity assay; settings: saturation, SPA
Method: The affinity for lipopolysaccharide (3H-LPS) is measured by scintillation proximity assay technology (SPA) as described (Linde, V., Bjørn, S., Kastrup, J. S., and Flodgaard, H., 2000, Biotechniques 28:218-222). All samples are repeated in triplicates.

[4] = 125I-BPTI binding to HBP, scintillation proximity assay; parameters: species or system bovine; settings: competition with unlabeled BPTI; read-out: apparent IC50 of 125I-BPTI binding
Method: (§1) The relative affinities of HBP and the mutants are determined by performing competition studies with […] of unlabeled BPTI.

125I-BPTI = assay: as above; parameters: species or system bovine
Method: as §1

[5] = test system: endothelial cells and fibroblasts; settings: cited from earlier work
rat insulinoma cells = settings: IL-1 induced; cited from earlier work

B1: HBP: Native human heparin-binding protein, mature form with the amino acid sequence SEQ ID NO:1 (protein, listed as Homo sapiens)
chain: IVGGRKARPRQFPFLASIQNQGRHFCGGALIHARFVMTAASCFQSQNPGVSTVVLGAYDLRRRERQSRQTFSISSMSENGYDPQQNLNDLMLLQLDREANLTSSVTILPLPLQNATVEAGTRCQVAGWGSQRSGGRLSRFPRFVNVTVTPEDQCRPNNVCTGVLTRRGGICNGDGGTPLVCEGLAHGVASFSLGPCGRGPDFFTRVALFRDWIDGVLNNPGPGPA
In the case of B1, the “onset of decrease in transendothelial resistance” value ([1]; HBP 75 μg/ml to upper compartment) is reported as “within one min”, the “decrease in transendothelial resistance, maximum” value ([1]; HBP 75 μg/ml to upper compartment, after 15 min) is reported as 30%±3% and the “dose dependence of EC responses (TEER)” value ([1]; HBP 25, 50 and 75 μg/ml) is reported as “clearly dose-dependent”. For the same molecule, the “F-actin content and distribution” value (EC monolayers) was “substantial changes in F-actin content and distribution”, the “time of maximum leakage response after challenge” value [2] was 7 to 10 min and the “time to complete disappearance of leakage” value [2] was ≤ 30 min. For the same molecule, the “time to visible leaky spots of fluorescent tracer” value [2] was ≤ 2 min, the “apparent Kd for 3H-LPS” value [3] was “approximately 0.7 μg/mL” and the IC50 [4] was ~7 nM. The “binding of BPTI” value (125I-BPTI) was “binds BPTI”, the cell contraction [5] was “induce contraction” and the apoptosis (rat insulinoma cells) was “rescues rat insulinoma cells from IL-1 induced apoptosis”.
